# Reference: the nanobody polyreactivity screen of Harvey et al. (2022)
# Assay: yeast display, Sf9 membrane polyspecificity reagent, FACS + sequencing; frameworks hold sequencing errors
# Method in brief: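 Galactose-induced (36–48 hours) yeast carrying a synthetic nanobody display library were exposed to 10% biotinylated, detergent-solubilized Sf9 membrane reagent at 4 °C for 1 hour. FACS followed streptavidin microbead enrichment, using low and high (top ~1%) gates for expression (anti-HA) and reagent binding (streptavidin). Colony PCR, MiSeq 2 × 250 sequencing and CDR-length filtering followed. Labels for polyreactivity reflect the gate of origin.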
row,Sequence,polyreactivity (PSR sort gate)
1,QVQLVESGGGLVQAGGSLRLSCAASGRTLGKYVMGWYRQAPGKERELVAAISVRGGTTYYADSVKGRFTISRDNAKYTVYLQMNSLKPEDTAVYYGNKAYYVWYGWGQGTQVTVSS,high polyreactivity
2,QVQLVESGGGLVQAGGSLRLSCAASGRTLGSNTMGWYRQAPGKERELVASISLSGGSTSYADSVKGRFTISRDNAKNTVYLQMNSLKPEDTAVYYCNAKYHRRLQWGTRYYYWGQGTQVTVSS,high polyreactivity
3,QVQLVESGGGLVQAGGSLRLSCAASGRTLGTNAMGWYRQAPGKERELVASISKRGGSTYYADSVKGRFTISRDNAKNTVYLQMNSLKPEDTAVYYCAALFLSHIYYYWGQGTQVTVSS,high polyreactivity
4,QVQLVESGGGLVQAGGSLRLSCAASGRTLGVYTMGWYRQAPGKERELVATISWDGGITYYADSVKGRFTISRDNAKNTVYLQMNSLKPEDTAVYYCAAVDHSYGWMDYWGQGTQVTVSS,low polyreactivity
5,QVQLVESGGGLVQAGGSLRLSCAASGRTLHDYTMGWYRQEPGKERELVAGITSGGRTNYADSVKGRFTISRYNAKNTVYLQMNSLKPEDTAVYYCAAAWTWWRLYADDYWGQGTQVTVSS,high polyreactivity
6,QVQLVESGGGLVQAGGSLRLSCAASGRTLISYAMGWYRQAPGKERELVAAISWGGSSTYYADSVKGRFTISGDNAKNTVYLQMNSLKPEDTAVYYCAAVSYRGRGLSRYVAYGYKYDYWGQGTQVTVSS,high polyreactivity
7,QVQLVESGGGLVQAGGSLRLSCAASGRTLKKNSMGWYRQAPGKERELVAAISTGGRTYYADSVKGRFTISRDNAKNTVYLQINSLKPEDTAVYYCNFQFLSWSTIWGNDYWGQGTQVNVSS,high polyreactivity
8,QVQLVESGGGLVQAGGSLRLSCAASGRTLKYNAMGWYRQAPGKERELVAAISWSGTRTYYADSVKGRFTISRDNAKNTVYLQMNSLKPEDTAVYYCALYGGLGDRFRPRYYWGQGTQVTVSS,high polyreactivity
9,QVQLVESGGGLVQAGGSLRLSCAASGRTLLANAMGWYRQAPGKARELVAAITWTGGRTNYADSVKGRFTISRDNAKNTVYLQMNSLKPEDTAVYYCAADIFYEQVVGGTDVGYHDFDYWGQGTQVTVSS,low polyreactivity
10,QVQLVESGGGLVQAGGSLRLSCAASGRTLNVYAMGWYRQAPGKDREFVAAITVSGGNTYADSVKGRFTISRDNAKNTVYLQMNSLKPEDTAVYYCAVDRFSYSRRYDYWGQGTQVTVSS,high polyreactivity
11,QVQLVESGGGLVQAGGSLRLSCAASGRTLNYYAMVCYRQAPGKERELVASIDWDTGITDYADSVKGRFTISRDNAKNTVYLQMNSLKPEDSAVYYCAAVRVTKKYSYAYWGQGTQVTVSS,low polyreactivity
12,QVQLVESGGGLVQAGGSLRLSCAASGRTLPATGMGWYRQAPGKERELVAAINWRGGITYYADSVKGRFTISRDNAKNTVYLQMNSLKPVDTAVYYCARLRYFLLNGSLRYGTSDRDYWGQGTQVTVSS,high polyreactivity
13,QVQLVESGGGLVQAGGSLRLSCAASGRTLPYYAMGWYRQAPGKERELVATISSRGGSTYYADSVKGRFTISRDNAKNTVYLQMNSLKPEDTAVYYCAARGNTPRTRRYGYWGQGTQVTVSS,high polyreactivity
14,QVQLVESGGGLVQAGGSLRLSCAASGRTLQYNAMGWYRQAPGKEMELVAAISSSGGSTYYADSVKGRFTISRDNAKNTVYLQMNSLKPEDTALYYCNAYSQSWNFYGDGDYWGQGTLVTVSS,low polyreactivity
15,QVQLVESGGGLVQAGGSLRLSCAASGRTLRLYVMGWYRQAPGKERELVAAISRSGGRTYYADSVKGRFTISRDNATNTVYLQMNSLKPEDTAVYYCAADSGRYGYDYWGQGTLVTVSS,high polyreactivity
16,QVQLVESGGGLVQAGGSLRLSCAASGRTLSRNAMGWSRQAPGKEREFVAAISSRGTSTYYADSVKGRFTISRDNAKNTVYLQMNSLKPEDTAVYYCATTLGGNYGYDYWGQGTQVTVSS,high polyreactivity
17,QVQLVESGGGLVQAGGSLRLSCAASGRTLTFYAMGWYRQAPGTERELVAAITWRAGSTYYADSVKGRFTISRDNAKNTVYLQMNSMKPEDTAVYYCAREPYSASHVYGLYRGYDYWGQGTQVTVSS,low polyreactivity
18,QVQLVESGGGLVQAGGSLRLSCAASGRTLTGNAMGWYRQAPGKERELVAAITARGGSTYYADSVKGRFTISRDIAKNTVYLQMNSLKPEDSAVYYCATLPVRIRRDYWGQGTQVTVSS,high polyreactivity
19,QVQLVESGGGLVQAGGSLRLSCAASGRTLTSYAMGWYRQAPGKERELVARISNGGNTKYADSVNGRFTISRDNAKNTVYLQMNSLKPEDTAVYYCAADYSYYHGPSRHKHDYWGQGTKVTVSS,low polyreactivity
20,QVQLVESGGGLVQAGGSLRLSCAASGRTLVGYAMGWYIQAPGKERELVAAISSRGGGTYYADSVKGRFTISRDNAKNTVYLQMNSLKQEDTAVYYCEVSGASYSWGQGTQVTVSS,high polyreactivity
21,QVQLVESGGGLVQAGGSLRLSCAASGRTLVLYAMGWYRQAPGKERELVAAITWSGDSTYYADSVKGRFTISRDNAKNTVYLQMNSLKPEDTAVYYCAATYLNAKRGLRYDYWGQDTQVTVSS,low polyreactivity
22,QVQLVESGGGLVQAGGSLRLSCAASGRTLYGYPMGWYRQAPGKERELVAAISKRGTRTYYADSVKGRFTISRDNAKNTVYIQMNSLKPEDTAVYYCAARYPPDEATMVYWGQGTQVTVSS,high polyreactivity

row,Sequence,polyreactivity (PSR sort gate)
1,QVQLVESGGGLVQAGGSLRLSCAASGRTLYKYAMGLYRQAPGKERELFATISSGGRTNYADSVKGRFTISRDNSKNTVYLQMNSLKPEDTAVYYCAAQNRPRYYSGDYWGQGSQVTVSS,low polyreactivity
2,QVQLVESGGGLVQAGGSLRLSCAASGRTLYRYTMGWYRQAPGKERELVAAISRGGSTYYADSVKGRFTISRDNAKNTVYLQMNSLKPEDTAVYYCAAVYSYTSWQTWWPEYDYWGQGTQVTVSS,high polyreactivity
3,QVQLVESGGGLVQAGGSLRLSCAASGRTSDGYAMGWYRQAPGKERELVAGITEGGGDTYYADSVKGRFTISRDNAKNTVYLQMNSLKPEDSAVYYCNAVEGSRLPYDYWGQGTQVTVSS,low polyreactivity
4,QVQLVESGGGLVQAGGSLRLSCAASGRTSGINAMGWYRQSPGKERELVAAISSGGRTYYADSVKGRFTISRDNAKNTVYLQMNSLKPEDTAVYYCAAVIHWSLYRRMEYWGQGTQVTVSS,high polyreactivity
5,QVQLVESGGGLVQAGGSLRLSCAASGRTSGNYAMGWYRPAPGKERELVAAMRYSGSSTFYADSVKGRFTISRDNAKNTVYLQMNSLKPEDTAVYYCARDIRRKGFRYDYWGQGTQVTVSS,high polyreactivity
6,QVQLVESGGGLVQAGGSLRLSCAASGRTSIYNAMGWYRQAPGKDREFVAAITSSGGSTYYADSVKGRFTISRDNAKNTVYLQMNSLKPEDTAVYYCAARPAYVYAYYRYGYWGQGTQVTVSS,high polyreactivity
7,QVQLVESGGGLVQAGGSLRLSCAASGRTSKVYAMGWYRQAPGKERELVARITSSGVRTYYADSVKGRFTISRDNAKNTVYLQMNSLKPEDTAVYYCAKDARALWLHSGIYDYWGQGTQVTVSS,low polyreactivity
8,QVQLVESGGGLVQAGGSLRLSCAASGRTSRIYAMGLYRQAPGKERELVASISRRGGITYYADSVKGRFTISRDNAKTTVDFQMTSLKPEDTAVYYSASYYTNKVPARYYWGQGTEVTVSS,high polyreactivity
9,QVQLVESGGGLVQAGGSLRLSCAASGRTSRYYAMGWYRQAPGKERELVATITRGGTTNYADSVKGRFTISRDNAKNNVYLQMNSLKPEDTAVYYCNKVFRAPGVSDYGYWGQGTQVTVSS,high polyreactivity
10,QVQLVESGGGLVQAGGSLRLSCAASGRTSTIYTMGWYRQAPGKEREFVASISAGAGTYYADSVKGRFTISRDNAKNTVYLQMNSLKPEDTAVYYCSASVYWRSTRRHQMDYWGQGTQVTVSS,high polyreactivity
11,QVQLVESGGGLVQAGGSLRLSCAASGRTSVRYAMGWYRQAPGKERELVAAISWSGGSTYYADSVKGRFTISRDNAKNTVYLQMNSLKPEDTAVYYCNAQHARGYYYWGQGTQVTVSS,low polyreactivity
12,QVQLVESGGGLVQAGGSLRLSCAASGRTSVVNAMGWYRQAPGKERELVAAITSGGSTHYADSVKGRFTISRDNAKNTVYLQMNSLKPEDTAVYYCNARDRRRTNLLDYWGQGTQVTVSS,low polyreactivity
13,QVQLVESGGGLVQAGGSLRLSCAASGRTSWYYAMGWYRQAPGNERELVATITRSTGSTYYADSVKGRFTISRDNAKNTVYLQMNCLKPEDTAVYDCARLYYFNGDYWGQGTQVTVSS,high polyreactivity
14,QVQLVESGGGLVQAGGSLRLSCAASGRTSYGYAMGWYRQAPGKERDLFAAITYGGGSTYYADTVKGRFTISRDNANNTVYLQMNSLIPEDTALYYCAADRTGSTLYTISYYYWGQGTQVTVSS,low polyreactivity
15,QVQLVESGGGLVQAGGSLRLSCAASGRTVDWYAMGWYRQAPGTDRELVAVISSSGGRTYYADSVKGRFTISRDNAKNTVYLQMNRLKPEDTAVYYCATQNGSKRYSYYYWGQGTQVTVSS,high polyreactivity
16,QVQLVESGGGLVQAGGSLRLSCAASGRTVVTNAMGWYRQAPGKERELVATINWSGGRTHYADSVKGRFTISRDNAKITVYLQMNSLIPEDTAVYYCAKASSRRYWTIRDGDYWGQGTQVTVAS,low polyreactivity
17,QVQLVESGGGLVQAGGSLRLSCAASGRTYGGNAMGWYRQAPGKERELVAAITVSAGHTYYADSVKGRFTISRDNAKNTVYLQMKSLKPEDTAVYYCAKVYHWYYSYDYWGQGTQVTVSS,low polyreactivity
18,QVQLVESGGGLVQAGGSLRLSCAASGRTYGNYAMGWSRPAPGKERELVAGITYRSGRTYYADSVKGRFTISRDNAKITFYLQMNSLKPEDTAVYYCAAASYYLTPKHDYWGQGTQVTVSW,high polyreactivity
19,QVQLVESGGGLVQAGGSLRLSCAASGRTYGWYAMGWYRQAPGKERELVAAIRSSGGRTHYADSVKGRFTISRDNAKNTVYLQMNSLKPEDTAVYYCAARYSAAYYWGQGTQVTVSS,high polyreactivity
20,QVQLVESGGGLVQAGGSLRLSCAASGRTYINNAMGWYRQAPGKERELVAAISRRGGSTYYADSVKGRFTISRDNAKNTVYLQMNSLKPEDTAVSYCAADAFRSQRPYTYDYWGQGTQVTVSS,high polyreactivity
21,QVQLVESGGGLVQAGGSLRLSCAASGRTYKINAMGCYRQAPGKERELVASISRTGGTTYYADSVKGRFTNSRDNAKNTVYLQMNSLNPEDTAVYYCAVSDFGLLDCLTIYDEYDYWGQGTQVTVSS,high polyreactivity
